According to article PMC12702194:

Target: Fibronectin 1 (FN1) (human (endogenous in C28/I2))
Test: proximity ligation; Duolink in situ PLA on decellularized, fixed matrix of C28/I2 WT cells cultured for 72 h; primary antibodies mouse anti-fibronectin or mouse anti-Col II with rabbit anti-ERp57; controls: matrix of ERp57 KO cells and omitted primary antibodies; some cultures incubated with 10 mM DTT for 15 min at 37°C before decellularization (PLA signal significantly decreased)

Sequence of Fibronectin 1 (FN1) (human (endogenous in C28/I2)) (P02751 32-2477): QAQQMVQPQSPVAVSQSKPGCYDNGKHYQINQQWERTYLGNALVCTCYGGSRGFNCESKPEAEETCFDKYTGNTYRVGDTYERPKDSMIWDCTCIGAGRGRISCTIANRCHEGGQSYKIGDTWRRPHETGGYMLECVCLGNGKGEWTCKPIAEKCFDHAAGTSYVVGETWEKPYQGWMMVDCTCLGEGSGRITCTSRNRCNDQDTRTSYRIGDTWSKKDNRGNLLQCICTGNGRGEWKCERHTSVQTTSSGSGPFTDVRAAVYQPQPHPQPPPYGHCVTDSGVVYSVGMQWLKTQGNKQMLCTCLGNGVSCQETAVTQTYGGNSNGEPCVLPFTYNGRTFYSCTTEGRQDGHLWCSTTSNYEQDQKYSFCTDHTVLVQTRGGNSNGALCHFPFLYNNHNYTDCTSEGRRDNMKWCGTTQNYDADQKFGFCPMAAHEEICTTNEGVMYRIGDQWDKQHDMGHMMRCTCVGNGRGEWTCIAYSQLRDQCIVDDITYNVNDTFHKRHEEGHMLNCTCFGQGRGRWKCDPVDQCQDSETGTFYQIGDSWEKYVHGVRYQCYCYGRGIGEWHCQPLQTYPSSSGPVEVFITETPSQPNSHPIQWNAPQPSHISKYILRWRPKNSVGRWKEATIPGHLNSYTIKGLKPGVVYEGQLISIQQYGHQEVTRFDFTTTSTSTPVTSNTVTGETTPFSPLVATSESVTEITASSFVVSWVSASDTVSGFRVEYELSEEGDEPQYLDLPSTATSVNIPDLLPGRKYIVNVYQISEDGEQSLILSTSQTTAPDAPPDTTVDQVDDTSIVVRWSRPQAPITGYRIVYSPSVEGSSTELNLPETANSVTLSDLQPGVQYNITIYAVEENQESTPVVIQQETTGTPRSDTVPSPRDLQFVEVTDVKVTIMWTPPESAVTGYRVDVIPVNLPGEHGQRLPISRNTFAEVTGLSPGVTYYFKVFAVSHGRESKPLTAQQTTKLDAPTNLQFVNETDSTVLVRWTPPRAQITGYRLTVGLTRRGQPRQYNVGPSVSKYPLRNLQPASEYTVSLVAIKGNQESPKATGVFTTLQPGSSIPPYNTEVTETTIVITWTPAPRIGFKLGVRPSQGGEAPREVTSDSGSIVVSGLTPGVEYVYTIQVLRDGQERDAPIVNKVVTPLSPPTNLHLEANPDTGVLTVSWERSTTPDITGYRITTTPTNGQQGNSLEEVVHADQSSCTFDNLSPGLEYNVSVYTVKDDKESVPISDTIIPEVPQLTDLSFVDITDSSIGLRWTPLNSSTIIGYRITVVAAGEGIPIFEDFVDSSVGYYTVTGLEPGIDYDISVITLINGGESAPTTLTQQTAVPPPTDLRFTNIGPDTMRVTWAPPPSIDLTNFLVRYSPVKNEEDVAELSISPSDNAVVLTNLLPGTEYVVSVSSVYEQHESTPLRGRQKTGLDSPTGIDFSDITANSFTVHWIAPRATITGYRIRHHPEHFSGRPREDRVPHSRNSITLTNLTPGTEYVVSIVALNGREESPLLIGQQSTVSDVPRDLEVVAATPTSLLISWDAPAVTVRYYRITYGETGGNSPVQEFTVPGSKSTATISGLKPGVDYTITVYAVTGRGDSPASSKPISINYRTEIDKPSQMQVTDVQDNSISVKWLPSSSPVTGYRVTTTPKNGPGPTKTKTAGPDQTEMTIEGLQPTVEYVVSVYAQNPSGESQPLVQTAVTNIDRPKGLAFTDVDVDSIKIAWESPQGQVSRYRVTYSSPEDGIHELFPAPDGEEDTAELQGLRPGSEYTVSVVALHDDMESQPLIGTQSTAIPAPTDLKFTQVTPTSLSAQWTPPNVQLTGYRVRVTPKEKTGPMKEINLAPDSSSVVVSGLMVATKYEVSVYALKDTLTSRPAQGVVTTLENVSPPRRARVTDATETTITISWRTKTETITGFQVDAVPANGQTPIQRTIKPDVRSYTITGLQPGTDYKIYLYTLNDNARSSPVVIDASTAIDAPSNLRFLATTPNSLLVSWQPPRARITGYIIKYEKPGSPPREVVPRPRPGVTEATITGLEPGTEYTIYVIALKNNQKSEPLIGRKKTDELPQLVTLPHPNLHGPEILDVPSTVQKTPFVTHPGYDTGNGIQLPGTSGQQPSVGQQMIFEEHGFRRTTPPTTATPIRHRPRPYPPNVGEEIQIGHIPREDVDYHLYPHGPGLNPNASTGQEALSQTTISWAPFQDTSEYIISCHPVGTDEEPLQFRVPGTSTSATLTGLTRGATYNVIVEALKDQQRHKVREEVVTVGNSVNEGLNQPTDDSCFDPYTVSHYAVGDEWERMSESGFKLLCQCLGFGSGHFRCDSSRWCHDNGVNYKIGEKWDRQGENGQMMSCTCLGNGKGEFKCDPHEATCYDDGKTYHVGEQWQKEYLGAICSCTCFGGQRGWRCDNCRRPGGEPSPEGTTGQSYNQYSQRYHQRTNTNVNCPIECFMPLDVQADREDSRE

“endoplasmic reticulum protein 57 (ERp57) (from UniProt P30101 25-505) (enzyme)” showed a PLA mean staining intensity of 0.284.
